Reference: the RNAGym collection of RNA variant scans (doi:10.7554/elife.90254)

B1: LINE1-full (parent)
chain: UACGUAGGUGGUUUUCCCCUGAUAGUGCUAAGGGGGCCUGGAAGUUUGGACUGGGCAGAGCUCAACACAGCGUGGCAAAGUGGCUGUGGCUAGACUGCCUCUCUGGAUUCCUCGUCACUCAGCAGGGCAUCUCUGAGAGAAAUGCC

Variants of: B1
Assay: self-cleavage, relative activity (ratio to wild type); higher = more cleavage; in vitro, sequencing; the parent is a self-cleaving ribozyme

In order of rising self-cleavage:
1. U14C C90A  0
2. U87C A117C  0
3. G4A U62G  0
4. G55C A57U  0.02
5. C66U U100A  0.02
6. A43U C61U  0.02
7. A69G G89A  0.03
8. A92G C103U  0.03
9. U62C C118U  0.03
10. A65G C113U  0.04
11. A69U A107U  0.04
12. G49U C95G  0.04
13. G93U U102C  0.04
14. U26C G86A  0.05
15. U62C U132A  0.05
16. U62C U134A  0.05
17. A92G C110U  0.05
18. C68U A92G  0.05
19. U14C G93U  0.06
20. U1C A65U  0.06
21. A50C U85C  0.06
22. G93A A117G  0.06
23. G93A U112C  0.06
24. U62C C76U  0.07
25. C63A U104C  0.07
26. A57U G114A  0.07
27. U15A G86A  0.07
28. C84U U100A  0.07
29. A57U A67C  0.07
30. A59G A67G  0.08
31. A92G U115C  0.08
32. A65G A121G  0.08
33. G21U U85G  0.08
34. A59G A121U  0.08
35. U87C U96A  0.09
36. U45C G54U  0.11
37. A2C A65G  0.12
38. U85C U102C  0.12
39. U12A U62C  0.12
40. G86A A141U  0.13
41. U96C U143A  0.13
42. A69G A94G  0.14
43. A65G G135U  0.14
44. G11A C84U  0.15
45. U85C  0.18
46. C84A C131A  0.18
47. A65U U119C  0.19
48. U23A A67U  0.19
49. U87C U143A  0.22
50. C17U U87C  0.23
51. A65U U87A  0.25
52. A94G A140G  0.26
53. U12A U96C  0.28
54. A78G U91C  0.29
55. C101U U102G  0.3
56. U47C A77C  0.34
57. G34A A42G  0.35
58. C99U C113U  0.41
59. U91C C145U  0.43
60. U1A G70C  0.43
61. U5C A94G  0.46
62. A6U C145U  0.48
63. C38U A69G  0.49
64. G40A A69G  0.49
65. U52G U112A  0.56
66. A31U C101U  0.58
67. A77U A107U  0.62
68. U12C U91A  0.64
69. G10A A129U  0.66
70. A6G G106A  0.66
71. A42C A43U  0.72
72. A50G A77U  0.73
73. U15A U23A  0.76
74. U5C A124C  0.8
75. U5C C19A  0.8
76. A22G U45G  0.82
77. C3A A142G  0.82
78. G4A U26A  0.82
79. C3U  0.83
80. G54A A138G  0.84
81. G33C A117U  0.85
82. U29C A142U  0.86
83. A2G C37G  0.87
84. C17A A43G  0.89
85. A6G U26C  0.9
86. U104A A107G  0.9
87. G27C U52A  0.91
88. U13C G139A  0.92
89. A50U U134A  0.92
90. G41A A141G  0.96
91. A50C U109C  0.97
92. U52G U112C  0.99
93. U5C A50G  1.01
94. U26C A79G  1.01
95. A43G G83A  1.03
96. U26C C118U  1.05
97. U5A U119A  1.05
98. A79G U130A  1.09
99. U9A A43G  1.1
100. G25A U143A  1.12
101. A43U U134A  1.13
102. U9C U26A  1.14
103. U15C A30G  1.14
104. U14G U26A  1.18
105. U20C U47A  1.19
106. A142G  1.21
107. A117U C131U  1.21
108. U52G U91C  1.23
109. A78G A121G  1.24
110. U26A U130C  1.24
111. A31U A129G  1.25
112. U14G U39C  1.25
113. U5C A121G  1.28
114. A43G G126U  1.28
115. C116U  1.29
116. U23C U47C  1.32
117. U26C A107G  1.33
118. A57G A136G  1.33
119. A57G G82C  1.36
120. U20A U45C  1.36
121. U45A U130A  1.38
122. U47A U143C  1.39
123. A129U  1.4
124. A2G U5C  1.41
125. G41A A129U  1.42
126. A79G A136G  1.42
127. U15C A42G  1.43
128. G72A A77U  1.44
129. U14C A136G  1.45
130. U39C G40C  1.48
131. C37A U108C  1.51
132. A31U U130A  1.53
133. U12C G35U  1.53
134. U109C C146U  1.53
135. G41A A136U  1.53
136. U13C A141U  1.57
137. G7A U108C  1.57
138. U73G U132C  1.58
139. U45C A124U  1.58
140. A43U G44A  1.61
141. C51U A129U  1.63
142. U15C U112A  1.64
143. G127A A136U  1.65
144. A43G U81A  1.68
145. U12C A22U  1.68
146. G34U U119C  1.7
147. A42G A117G  1.71
148. U46A U115C  1.72
149. G33U U47C  1.73
150. U52C C120U  1.77
151. U46C A117G  1.78
152. U81A C118U  1.78
153. U52G A140G  1.81
154. U12C U52G  1.84
155. G48A U100C  1.9
156. A79C A136G  1.93
157. A30G C118U  1.93
158. U12C U134G  1.97
159. A121C U143C  1.99
160. U26C C131G  2.07
161. A78U U112A  2.12
162. A117U G137C  2.13
163. U73G U115C  2.26
164. A77G A117G  2.32
165. A43U U45G  2.34
166. A31G A79U  2.64
167. U81A U100C  2.98
